From patent US20220249561A1 (SHINSHU UNIVERSITY, published 2022) come the findings set out here.

One experiment concerns the target T1, ALK 001P.
T1 construct: ALK (1-19) is described only as a region comprising a secretory signal, and no cleavage site is stated; Expressed in Expi293 cells and captured on a Protein A chip through its Fc
The experiment is described as follows: SPR, Biacore 8K; receptor-Fc captured on Protein A chip, ligand as analyte. As for the experimental part:
(§1) Whether or not ALK 001P and LTK 001P obtained in Example 5 had bound to Ligand 001P and Ligand 002P was examined using Biacore 8K instrument (GE Healthcare Japan) by the surface plasmon resonance (SPR) technique.
(§2) ALK 001P and LTK 001P were dissociated (i.e., regenerated) from Protein A coating the sensor chip surface (i.e., regeneration) by injecting 10 mM Glycine-HCl (pH 1.6) at a flow rate of 30 μl/min for 30 seconds. The bond dissociation curve modified by subtracting the baseline value was prepared using Biacore8K Evaluation Software (GE Healthcare Japan).
For orientation: In SPR one partner is held on a chip, and binding of the other changes the refractive index at the surface.

Another experiment has as its target T2, LTK 001P.
T2 construct: Expressed in Expi293 cells and captured on a Protein A chip through its Fc
The description is as above. As for the experimental part: as §1, §2

T1 sequence (chain, as listed by the source limits assumed): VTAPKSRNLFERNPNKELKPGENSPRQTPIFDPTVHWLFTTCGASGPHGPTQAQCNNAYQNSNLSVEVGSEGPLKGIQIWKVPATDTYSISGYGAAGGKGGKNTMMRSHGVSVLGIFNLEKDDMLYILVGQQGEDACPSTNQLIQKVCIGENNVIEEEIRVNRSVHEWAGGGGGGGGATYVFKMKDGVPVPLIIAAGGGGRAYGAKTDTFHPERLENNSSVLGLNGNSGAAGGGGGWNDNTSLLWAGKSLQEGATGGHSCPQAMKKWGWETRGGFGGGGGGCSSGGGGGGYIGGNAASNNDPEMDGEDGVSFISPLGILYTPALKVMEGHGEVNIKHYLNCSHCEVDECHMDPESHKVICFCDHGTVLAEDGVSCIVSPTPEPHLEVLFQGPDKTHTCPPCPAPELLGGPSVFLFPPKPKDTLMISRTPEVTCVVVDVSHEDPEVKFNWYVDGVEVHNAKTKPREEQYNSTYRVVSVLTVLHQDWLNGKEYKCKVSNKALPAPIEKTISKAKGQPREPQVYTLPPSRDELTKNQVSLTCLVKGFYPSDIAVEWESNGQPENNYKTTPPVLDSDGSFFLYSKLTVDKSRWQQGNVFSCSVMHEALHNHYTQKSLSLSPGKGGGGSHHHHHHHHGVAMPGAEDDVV
T2 sequence (chain, as listed by the source limits assumed): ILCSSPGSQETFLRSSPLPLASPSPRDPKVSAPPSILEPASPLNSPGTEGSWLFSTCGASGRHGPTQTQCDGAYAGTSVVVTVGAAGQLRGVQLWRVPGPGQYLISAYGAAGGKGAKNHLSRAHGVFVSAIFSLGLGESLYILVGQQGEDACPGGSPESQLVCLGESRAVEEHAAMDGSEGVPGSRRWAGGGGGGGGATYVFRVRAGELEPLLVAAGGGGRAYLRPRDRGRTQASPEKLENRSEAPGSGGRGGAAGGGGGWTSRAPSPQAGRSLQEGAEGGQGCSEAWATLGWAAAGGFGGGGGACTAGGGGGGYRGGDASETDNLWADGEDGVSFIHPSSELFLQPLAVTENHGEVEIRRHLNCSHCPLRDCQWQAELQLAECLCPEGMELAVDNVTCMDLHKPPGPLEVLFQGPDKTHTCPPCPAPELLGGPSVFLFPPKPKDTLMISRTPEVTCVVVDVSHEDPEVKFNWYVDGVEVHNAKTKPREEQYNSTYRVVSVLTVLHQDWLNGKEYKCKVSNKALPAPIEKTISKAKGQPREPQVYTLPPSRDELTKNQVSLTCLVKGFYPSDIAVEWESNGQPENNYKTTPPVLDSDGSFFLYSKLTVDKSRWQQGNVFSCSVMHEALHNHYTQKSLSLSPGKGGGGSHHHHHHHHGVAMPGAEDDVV

B1: Ligand 001P (ligand)
chain: DGHHHHHHGSLQDSEVNQEAKPEVKPEVKPETHINLKVSDGSSEIFFKIKKTTPLRRLMEAFAKRQGKEMDSLTFLYDGIEIQADQTPEDLDMEDNDIIEAHREQIGGLEVLFQGPAAGAGRTPSGSRSAEIFPRDSNLKDKFIKHFTGPVTFSPECSKHFHRLYYNTRECSTPAYYKRCARLLTRLAVSPLCSQT
As to B1, the binding result with ALK 001P and with LTK 001P was “binds” throughout.
